Test results published in the supplement of paper PMC10567573.
± gives the standard deviation.

Assay: protein stability index of a GFP-peptide fusion (GPS, HEK-293T) (PSI 1-6); higher = more stable
Conditions: c terminus: a fixed tail appended
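Further: 24-mer peptide tiles fused after GFP, lentivirally expressed, FACS-sorted into six equal bins by GFP/DsRed ratio, decoded by Illumina sequencing, PSI is the read-weighted mean bin number.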

CHPDDQFTTSILRHWCMKHDELLA [INTS3]
protein stability index (treatment: DMSO): 3.03 ± 0.28
protein stability index (treatment: MLN4924 1 uM, 8 h): 3.06 ± 0.41

ARLLGALAARSGAAYGPGARGEDR [TSPAN10]
protein stability index (treatment: DMSO): 3.89 ± 0.73
protein stability index (treatment: MLN4924 1 uM, 8 h): 3.91 ± 0.18

LYVVGGQSNYDTKGKTAVDTVFRF [KLHL13]
protein stability index (treatment: DMSO): 2.5 ± 0.2
protein stability index (treatment: MLN4924 1 uM, 8 h): 1.98 ± 0.31

VVSSEGRQSRRQSVSRFFADSGAD [FBF1]
protein stability index (treatment: DMSO): 4.25 ± 0.11
protein stability index (treatment: MLN4924 1 uM, 8 h): 4.44 ± 0.31

RDKAEELLQLPDTKVGSFMIRESE [SLA]
protein stability index (treatment: DMSO): 4.66 ± 0.37
protein stability index (treatment: MLN4924 1 uM, 8 h): 4 ± 0.79

RGRAREREQLQAEASERFAAGYIQ [HES6]
protein stability index (treatment: DMSO): 4.58 ± 0.2
protein stability index (treatment: MLN4924 1 uM, 8 h): 4.57 ± 0.1

EQLSGAGYRVSAALEEADKMFLRT [EID1]
protein stability index (treatment: DMSO): 3.72 ± 0.22
protein stability index (treatment: MLN4924 1 uM, 8 h): 4.1 ± 0.43

VSEAGGSGRLSASWEPLSGPSTPS [FCHO1]
protein stability index (treatment: DMSO): 4.54 ± 0.17
protein stability index (treatment: MLN4924 1 uM, 8 h): 4.74 ± 0.2

LFRKDVDDATLSRLELERKIESLM [PRPH]
protein stability index (treatment: DMSO): 3.06 ± 0.22
protein stability index (treatment: MLN4924 1 uM, 8 h): 3.33 ± 0.29

ERCSDSDEEKKARRGRSPKGEFKD [CLINT1]
protein stability index (treatment: DMSO): 5.43 ± 0.27
protein stability index (treatment: MLN4924 1 uM, 8 h): 5.3 ± 0.51

YTCHECGDSFSHSSNRIRHLRTHT [ZNF263]
protein stability index (treatment: DMSO): 3.04 ± 0.18
protein stability index (treatment: MLN4924 1 uM, 8 h): 3.32 ± 0.33

TETDSLVSAQRERPRRRDGPEHAT [DVL3]
protein stability index (treatment: DMSO): 5.24 ± 0.13
protein stability index (treatment: MLN4924 1 uM, 8 h): 5.33 ± 0.3

RQVLCEKCKSTLSPPEASPGPPAA [PWWP2B]
protein stability index (treatment: DMSO): 4.88 ± 0.14
protein stability index (treatment: MLN4924 1 uM, 8 h): 4.83 ± 0.37

ELWIYNMETGRWKKINTEGDVPPS [KLHDC2]
protein stability index (treatment: DMSO): 3.43 ± 0.2
protein stability index (treatment: MLN4924 1 uM, 8 h): 3.61 ± 0.27

WHPAENIIAIAATNNLYIFQDKVN [PPP2R2C]
protein stability index (treatment: DMSO): 2.6 ± 0.48
protein stability index (treatment: MLN4924 1 uM, 8 h): 2.44 ± 0.31

LASSLGNLNAATDDPENKKTSSSS [CDC14A]
protein stability index (treatment: DMSO): 5.43 ± 0.15
protein stability index (treatment: MLN4924 1 uM, 8 h): 5.53 ± 0.15

FFFLRMDENYNLLPHGVNFQDAIF [CCDC3]
protein stability index (treatment: DMSO): 2.79 ± 0.43
protein stability index (treatment: MLN4924 1 uM, 8 h): 2.97 ± 0.76

YVKVFEHFLENLDKSRKGELLKKS [PRIM1]
protein stability index (treatment: DMSO): 1.96 ± 0.31
protein stability index (treatment: MLN4924 1 uM, 8 h): 2.09 ± 0.48

QLVLVAAGFDALQGDPKGEMAATP [HDAC6]
protein stability index (treatment: DMSO): 2.75 ± 0.057
protein stability index (treatment: MLN4924 1 uM, 8 h): 2.8 ± 0.43

RDLKLCRFVFADRERKKLVLENLE [TRIB3]
protein stability index (treatment: DMSO): 2.36 ± 0.23
protein stability index (treatment: MLN4924 1 uM, 8 h): 2.51 ± 0.25

LAPIHKLEEALYEYQPLQIETYGP [MNAT1]
protein stability index (treatment: DMSO): 2.41 ± 0.46
protein stability index (treatment: MLN4924 1 uM, 8 h): 2.71 ± 0.49

TPPLKNVRKKRFRKTQKKVPDVKE [TAF7L]
protein stability index (treatment: DMSO): 4.84 ± 0.37
protein stability index (treatment: MLN4924 1 uM, 8 h): 4.73 ± 0.22

DWNEWRDYHLLHPVENIPEIILYW [SLC25A25]
protein stability index (treatment: DMSO): 2.35 ± 0.51
protein stability index (treatment: MLN4924 1 uM, 8 h): 2.2 ± 0.12

ELAEHRCHPVERGIKSKEAEEYRL [PSD2]
protein stability index (treatment: DMSO): 4.89 ± 0.25
protein stability index (treatment: MLN4924 1 uM, 8 h): 4.64 ± 0.36

ATYRRLLEGEDAHLSSQQASGQSY [KRT16]
protein stability index (treatment: DMSO): 4.46 ± 0.22
protein stability index (treatment: MLN4924 1 uM, 8 h): 4.4 ± 0.29

MDLRTAVYNAARDGKLQLLQKLLS [FEM1A]
protein stability index (treatment: DMSO): 2.21 ± 0.26
protein stability index (treatment: MLN4924 1 uM, 8 h): 2.28 ± 0.24

PGNKGRGQRGNTESKTDGDDTETV [TCF25]
protein stability index (treatment: DMSO): 5.57 ± 0.3
protein stability index (treatment: MLN4924 1 uM, 8 h): 5.54 ± 0.3

WMENNGHVAGEQMLEDGPHNANRG [CCDC70]
protein stability index (treatment: DMSO): 5.23 ± 0.39
protein stability index (treatment: MLN4924 1 uM, 8 h): 5.25 ± 0.14

PQAPDPEEEENRDSQQPGKRRKDS [FANCE]
protein stability index (treatment: DMSO): 5.74 ± 0.21
protein stability index (treatment: MLN4924 1 uM, 8 h): 5.62 ± 0.3

VGALLVYDIAKHLTYENVERWLKE [RAB11A]
protein stability index (treatment: DMSO): 2.54 ± 0.32
protein stability index (treatment: MLN4924 1 uM, 8 h): 2.32 ± 0.54

PHVALAVRYNRVGILRRILRTLRD [ANKRD9]
protein stability index (treatment: DMSO): 2.73 ± 0.073
protein stability index (treatment: MLN4924 1 uM, 8 h): 2.84 ± 0.3

RSVKVICLGSLASKLSRKYVKAKK [FAN1]
protein stability index (treatment: DMSO): 2.37 ± 0.25
protein stability index (treatment: MLN4924 1 uM, 8 h): 2.37 ± 0.28

DYRPMNHEAFKDELKTFRLKTRSW [CDC25B]
protein stability index (treatment: DMSO): 3.46 ± 0.27
protein stability index (treatment: MLN4924 1 uM, 8 h): 3.41 ± 0.25

DHPIVETLRQKAEADKNDKAVKDL [HSP90AB1]
protein stability index (treatment: DMSO): 5.58 ± 0.29
protein stability index (treatment: MLN4924 1 uM, 8 h): 5.64 ± 0.14

QRVGFGDDFDEDELMAELEELEQE [CHMP4C]
protein stability index (treatment: DMSO): 5.33 ± 0.4
protein stability index (treatment: MLN4924 1 uM, 8 h): 5.35 ± 0.23

PPRQALGSLCSPWAAPRVGPLPPA [YPEL3]
protein stability index (treatment: DMSO): 3.16 ± 0.51
protein stability index (treatment: MLN4924 1 uM, 8 h): 3.2 ± 0.44
